Test results reported in CN113754775A (SUNSHINE GUOJIAN PHARMACEUTICAL SHANGHAI CO LTD, dated 2021).

Biological target: T1, PDL1-ECD-his (human, UniProt Q9NZQ7 19-238)
T1 construct: extracellular domain; Made in HEK-293F
Test: ELISA, PDL1-ECD-his coated, anti-human IgG Fc-HRP

T1 sequence (Q9NZQ7 other isoform, or with tags, fused parts or gaps): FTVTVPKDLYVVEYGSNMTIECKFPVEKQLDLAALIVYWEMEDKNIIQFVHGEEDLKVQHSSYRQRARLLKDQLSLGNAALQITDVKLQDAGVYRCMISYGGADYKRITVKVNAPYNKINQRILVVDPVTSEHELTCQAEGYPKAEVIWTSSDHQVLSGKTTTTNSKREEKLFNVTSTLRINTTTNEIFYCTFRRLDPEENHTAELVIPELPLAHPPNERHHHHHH

B1: 抗人PD-L1抗体M8 (antibody, V domains shown)
VH: QVQLQQSGGGLVKPSQSLSLTCTVSGFSLTSYGVHWVRQPPGKGLEWIGLIWSGGGTDYNPSLKSRLTISRDTSKNQVSFKISSLTAADTAVYYCARQLGLRAMDYWGQGTSVTVSS
VL: EIVLTQSPDFLSVTPKEKVTITCRASQSIGTTIHWYQQKPDQSPKLLIKYASQSFSGVPSRFSGSGSGTDFTLTINSVEAEDAATYYCQQSNSWPLTFGAGTKLEIK
notes: Whole monoclonal antibody with two heavy and two light chains, made in HEK293F; also called anti-human PD-L1 antibody M8
binding result: binds
